# Assay: soluble on expression in E. coli; label from the status in PepcDB or PDB records
row,Sequence,soluble on expression in E. coli
1,KFTLGQFFGAAKIAGKAFMFKADEPEDLIAKIVEMADAARKGGFLALEEMEINNSFMQKGIDLLVDGHDADVVRAALQKDIALTDERHTQGTGVFRAFGD,not soluble
2,KGDDNYYIIFTSGTTGQPKGVQISHDNLLSFTNWMIEDAAFDVPKQPQMLAQPPYSFDLSVMYWAPTLALGGTLFALPKELVADFKQLFTTIAQLPVGIWTSTPSFADMAMLSDDFCQAKMPALTHFYFDGEELTVSTARKLFERFPSAKIINAYGPTEATVALSAIEITREMVDNYT,not soluble
3,KGKLPPVVHGTTPFVGHIIQFGKDPLGFMLKAKKKYGGIFTMNICGNRITVVGDVHQHSKFFTPRNEILSPREVYSFMVPVFGEGVAYAAPYPRMREQLNFLAEELTVAKFQNFAPSIQHEVRKFMKANWNKDEGEINILDDCSAMIINTACQCLFGEDLRKRLDARQFAQLLAKMESCLIPAAVFLPWILKLPLPQSYRCRDARAELQDILSEIIIAREKEEAQKDTNTSDLLAGLLGAVYRDGTRMSQHEVCGMIVAAMFAGQHTSTITTTWSLLHLMDPRNKRHLAKLHQEIDEFPAQLNYDNVMEEMPFAEQCARESIRRDPPLVMLMRKVLKPVQVGKYVVPEGDIIACSPLLSHQDEEAFPNPREWNPERNMKLVDGAFCGFGAGVHKCIGEKFGLLQVKTVLATVLRDYDFELLGPLPEPNYHTMVVGPTASQCRVKYIKKKKAAA,soluble
4,KHDGIPAECTTIYNRGEHTSGMYAIRPSNSQVFHVYCDVISGSPWTLIQHRIDGSQNFNETWENYKYGFGRLDGEFWLGLEKIYSIVKQSNYVLRIELEDWKDNKHYIEYSFYLGNHETNYTLHLVAITGNVPNAIPENKDLVFSTWDHKAKGHFNCPEGYSGGWWWHDECGENNLNGKYNKPRAKSKPERRRGLSWKSQNGRLYSIKSTKMLIHPTDSESFE,soluble
5,KILSVGSFGCNFVCDFCQNYDISQRKARSTFAPKEELIRIAMTTEDNIGLAFTYNEPSIWYEYMYDCAKLLKETDEKRSVVFVTNGFLSEEPLKKLLPYVDAMNIDLKSFKESYYKSLCGGRLNPVLETIKMAAKVCHVEVTTLLVSGENDNLDEIEEIAKFLASVNSEIPLHLSRYFPRYKLENPPTDVEFMQEAKKTAEKYLKRVMLGNV,not soluble
6,KIVAVTACPTGIAHTYMAADALMKAAPKHNVQIKVETQGAMGIENQLTPHDIAQADRVLIVSDIEIEQPGRFEGTRKIQIPIEEVLLNVDKVFL,not soluble
7,KKKKKKDPNEPQKPVSAYALFFRDTQAAIKGQNPNATFGEVSKIVASMWDGLGEEQKQVYKKKTEAAKKEYLKQLAAYRASLVSKSYTD,soluble
8,KKVIIIINPTSGGEAALDYKESLESKAKEYFDHVETKITQRAKDATHFAQNASEEKYDAVIVFGGDGTVNEVISGISEKNHIPKLGIIPGRTGNLITKLLEIN,not soluble
9,KLSSSEKNAILNAVSWYDADAEKVVKGTTKLAGDKLKELLAYLGCKEKELGDYGYFATEKKGEYLEYETESNLRDTENVPLKEAIYTYFLREVKPHVGEAWINLDATKIGYEISFNKYFYKHKPLRSIEDVTADILALEKESDGLIAEILGL,not soluble
10,KNRIGTKALNFTYTLASGAQGSLYQLKAEYLLLFINNPGCQACTETIEGLKNAPIINQLLQEKKLVLLSIYPDEELDEWKKHLSEFPNEWINGYDKKFTIKEEQVYDLKAIPTLYLLDKDKTVLLKDATAPAIEAYLMQHQ,not soluble
11,KPNWCPGCGDFSVQAAIQRAAANVGLEPDQLAVISGIGCSGRISGYINAYGFHGVHGRVLPIAQGVKMANRDVTVIASGGDGDGFAIGMGHTVHAIRRNINITYIVMDNQIYGLTKGQTSPRSDVGFKTKSTPSGSVESALNVMEMALTAGATFVAQSFSSDLKELTALIEKGINHNGFSLINVFSPCVTFNKVNTYDWFKENLTKLSDLEGYDPQNRMVAMQTLMEHNGLVTGLIYQNDKQPSYQDLIAGYDEKPLADQDLTIDEGKFKELVGEF,not soluble
12,KQGPTSVAYVEVNNNSMLNVGKYTLADGGGNAFDVAVIFAANINYDTGTKTAYLHFNENVQRVLDNAVTQIRPLQQQGIKVLLSVLGNHQGAGFANFPSQQAASAFAKQLSDAVAKYGLDGVDFNDEYAEYGNNGTAQPNDSSFVHLVTALRANMPDKIISLYNIGPAASRLSYGGVDVSDKFDYAWNPYYGTWQVPGIALPKAQLSPAAVEIGRTSRSTVADLARRTVDEGYGVYLTYNLDGGDRTADVSAFTRELYGSEAVRT,soluble
13,KQKVINVKEVRLSPTIEEHDFNTKLRNARKFLEKGDKVKATIRFKGRAITHKEIGQRVLDRLSEACADIAVVETAPKMDGRNMFLVLAPKNDNK,soluble
14,KRTWWLWRQTISSSRGNKVVFEVNADSVRYKSGKIDRSLAWSEIDQLEQTDLGFILHLGKQRQYISKSCLNEEVIAFMVEQHAGSKAS,not soluble
15,KSNYVRVIPNPKVPTDYPAITIEMNDTVSSEQTIEALKSIERVMQEVESQTIADHGQGMIRDVLSYNRSRTEGRVLVPLVDEEIRPFNTFELARRWREAMPVIPGMKSIKIREQSAGGGDRDEFGYLLFGSNINELNQAGRYLIERLQQEEGLFDISSSIDSGSKEVLLSLAPVAYDLGLDLTMIAQQVGGSFYGGEAQRLIRDGEEIKVMVRYPQLTREAFSSLRYAVITTPAGKKVMLGDVVNISEQPGVSTIRREGGYQTVYVYGSIDEELVEPQEIVKIIDDSILPDMKKLHPSVKTELGGDIEEQAAQRNEQ,not soluble
16,KTHFVIQLKEDSQLMDEVVVVGFGTQKKINLTGAVTAVNIQETLGDRPITNVTAALQGVVPGLKIEGTTGTPGDNLSYNIRGTTSINGGGPLVLVNNVPMDINMIDPQDIESVSVLKDAASAAIYGARAAFGVILITTKQGKKDM,not soluble
17,KTTVIPESLKILGWVEFTRLEPWGIKTPARIDTGANTSSMSARDINVFKRNGKTWVRFTFDFKKGTAERSIEIERPLVRMVKIKQHDGPSQERPVISMEICLADEIREAEFDLIDRRALNYPVLLGRKALAGYVVVDPARAYLTKAV,not soluble
18,KVGISMFNILQSTQLSSNTFDFWLEAPRIATHAQAGQFVILRIDEKGERIPLTIAETNPQAGSIRIIFQVIGKTTAALSQLKTSDSLLDITGPLGMPTEVKQYGTVMVVGGGVGIAAIYPIIKALKEAGNRVITILGARTAELVLLQEECRRYSDELIITTDDGSLGKKGLVTEAMEEVIARESVACSWAIGPSIMMKFCTLTAEKHQLPIYVSLNPIMIDGTGMCGGCRVTVDGTMKFACVDGPEFKGNEVNWDEFINRMKQYQEEEAVCFTDRLKEQVEKNG,not soluble
19,KVKSTFNKYSKVSSSKGMTGAMVAEQLLRSQGIYDVSIQRVSGSLTDNYNPRNKTLNLSDSVYNSTSVAAIGVAAHETGHAIQHAYGYGPLSFRTALFP,not soluble
20,KVLKIPREKIIEKGFTDPREYFASIEVDGGRPPKPGEFRDILVETVREVMGVEVVEAGLSKEEKIIWDRYKEMLTSSRFKMRRSTRLFKASMPPGTRYGFAQIKYRKLVQASVAVDSEGIIRAAMITGDFQLIPADADEEIVKAILGFKHSQYGEAADRVRRLVDERGIMIIGASAEEFIKPV,soluble
21,KVSSQSEDSSIKLIQITDTHLFAAEDGSLLSVNTADSFAAVVAAIGEEQVEFDAILATGDISQDHTPESYQRFVRGIQPLKKACYWLPGNHDYKPSMHSVLPTQQIQAVEHVLLGEHWQVVLLDSQVVGVPHGKLSEQQLQLLDNKLTEYPERHTLVLLHHHPLLVGSAWLDQHTLKESERFWDVVAKHSNVKAILCGHVHQDMDRIHLGARVMATPSTCVQFKPNSQDFALDNCSPGWRELTLHADGQVSTQVKRLKQGRFLPDFNSNGY,soluble
22,KVVAKGLGLSKAYVGQKSSFTVDCSKAGNNMLLVGVHGPRTPCEEILVKHVGSRLYSVSYLLKDKGEYTLVVKWGHEHIPGSPYRVVVP,soluble
23,LAADQFIVDRPMPEDPYGKTIIAGYHWFSDWGRDTMISLPGLTISTGRPEVARSIIRTFARYVDQGMLPNRFPDAGEQPEYNTVDATLWYFEAVRAYYSATDDDTLLGELFPILADIIDWHCRGTRYNIHLDAADGLLYAGVTGVQLTWMDAKVDDWVVTPRIGKPIEVNALWYNALRTMAKFARHLGKPHQEYEAMADRAKYRFSRFWNDETGYCYDVLDSPNGDDAALRPNQIFAVSLPESPLTPAQQRSVVEVCGRRLLTSHGLRSLAPDHPQYQGKYGGNQYQRDGAYHQGTVWGWLLGPFVLAHLRVYKNPEQARQFLEPMANHLTKHGLGSLSEIFDGDAPMTARGCIAQAWTVAEVLRAWFATES,not soluble
24,LDFATLPPEINSARMYSGAGSAPMLAAASAWHGLSAELRASALSYSSVLSTLTGEEWHGPASASMTAAAAPYVAWMSVTAVRAEQAGAQAEAAAAAYEAAFAATVPPPVIEANRAQLMALIATNVLGQNAPAIAATEAQYAEMWSQDAMAMYGYAGASAAATQLTPFTEPVQTTNASGLAAQSAAIAHATGASAGAQQTTLSQLIAAIPSVLQGLSSSTAATFASGPSGLLGIVGSGSSWLDKLWALLDPNSNFWNTIASSGLFLPSNTIAPFLGLLGGVAAADAAGDVLGEATSGGLGGALVAPLGSAGGLGGTVAAGLGNAATVGTLSVPPSWTAAAPLASPLGSALGGTPMVAPPPAVAAGMPGMPFGTMGGQGFGRAVPQYGFRPNFVARPPAAG,not soluble
25,LDSKTLARRVLVAQMLATANNVYPTSQTFREKLANLYGAQFSTCISKKGKVHIVDIDISFVSDKFILEGKSILGEIIHFLRAALFKPLISVEHYQSKSFDLEKEN,not soluble
26,LESALIEVNGKQQLRYEFLNDMLTQQNFQTNPIYAILHESIYCQDFASNWSAHRVRQTRPEFNYEPDQPFYFTGEMVFPWMFDQYVNLKPLKDAAEILAAKEDWAALYDQTQLAQNKVPVSCAVYADDMFVEMDISRETLALIPNSKAWITNEYEHNGLRADGERILDRLIAMGKQTAATLK,not soluble
27,LGSVKPATCEKPKFLEYKTCVGDLAVVIAKALDEFKEFCIVNAANEHMSHGGGVAKAIADFCGPDFVEYCADYVKKHGPQQKLVTPSFVKGIQCVNNVVGPRHGDSNLREKLVAAYKSVLVGGVVNYVVPVLSSGIFGVDFKISIDAMREAFKGCAIRVLLFSLSQEHIDYFDATCK,soluble
28,LKQLLALDKNIERMECFDISHTQGEATVASCVVFDTEGPRPSEYRRFNIEGITPGDDYAAMEQAVTRRFKRLIDVQLLPDVLIIDGGKGQVSIVKRVLTSLGVEDITLLGVSKGPSRKAGWEKLILVNENREFVLPEDSKALHLLQHIRDEAHRFAI,not soluble
29,LKSLRCFWNVRFITLSMLPRYTAQMLRRFIPPMLSLWLLFASLAQANGTVDKIQIKGLDKGDDVEMMKNITVSLSLYSVVGKEQGEFRLEYLLSQAEFQTRQALEPFGYYAPTIRIDAPRQNDHITVVIYVDKGEPVRVRQAHVAMTGAAAQDHYLQRDLEDFKPKLGEIFNHPTYEASKVRITRRLAERGYFDADFTHRRVEVTRAAHAADIDLIWESGRRYDMGPVRFHYDYFHEGLFNPLVYWDEGSYFHEGKLDRLRESLTKLDYFSSIDIQPKPEEADPEGNVPVDVKLERAKSKIYTAGISYGSESGAGLRAGVERRYMNARGHKMNARLDYAQNLKSLTTAYQIPAFKWLDGWYIFFARAYDEQTKYIDLRNVKLSAARSGQINRHLTATASLNALRGRWRYRADDGTNTVAYQQSTLVYPQLEASYVDVDDATFPRNGSAATVLLRGGASALGSKSNFTQLHGQLRWFHGLGASSRLILRGEAGTTWASDLVAMPPSLRFFAGGVNSIRGYAFREVGPRTAKPDAFALGAKHVFSAGAEFEYYYKGGPFGGAVFVDSGSAFNRYPDWHTGVGIGLRYRSPVGPVRVDIARGLNSPDSKIQLYIDIGANL,soluble

# Reference: the DeepSol protein solubility set
